pKd: −log10 of the molar value. Like-named read-outs stand apart in the source and are kept apart here.
How the values were obtained:
[1] = molecular target: P-selectin expressed on Chinese hamster ovary cells (CHO-P) (UniProt P16109); experiment: flow cytometry on cells
[2] = molecular target: P-selectin expressed on Chinese hamster ovary cells (CHO-P) (UniProt P16109); experiment: flow cytometry on cells; remark: listed apart in the source
[3] = molecular target: P-selectin expressed on Chinese hamster ovary cells (CHO-P) (UniProt P16109); experiment: flow cytometry on cells; remark: listed apart in the source
[4] = molecular target: Recombinant human P-selectin (recombinant ectodomain of P-selectin) (human) (UniProt P16109); experiment: SPR

| Substance | increase of binding over the sample without calcium or magnesium [1] [%] | increase of binding over the sample without calcium or magnesium [2] [%] | increase of binding over the sample without calcium or magnesium [3] [%] | mean fluorescence intensity (MFI) of C3b-FITC [3] | pKd [4] |
| --- | --- | --- | --- | --- | --- |
| FITC-conjugated purified C3b (from UniProt P01024 749-1663; P01024 749-1663) (natural protein) | 55 | 63 | 33 | 476 |  |
| purified C3b (from UniProt P01024 749-1663; P01024 749-1663) (natural protein) |  |  |  |  | 6.00 |

From publication PMC2213112
